Data reported in the supplement of paper PMC9170038.

System: MS2 coat protein
Test: apparent KD of MS2 coat protein; designed switch direction (-1 OFF switch, 1 ON switch): -1; higher = weaker reporter binding
How it was run: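 Normalised cluster fluorescence was curve-fitted, and each design's median over clusters is its apparent KD. Before this, SNAP-549-labelled MS2 coat protein was titrated from 0.7 or 1.5 nM, doubling to 3 µM, over RNA switches transcribed on Illumina chips by stalled E. coli RNA polymerase. Titrations had no input, 200 uM small-molecule ligand, or an oligonucleotide input, and steps lasted 0.8–1.5 h (lowest) to 10–20 min (highest).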

[1] = Eterna round: R95, input ligand: FMN 200 uM
[2] = Eterna round: R95, input ligand: microRNA oligo, concentration not stated
[3] = Eterna round: R95, input ligand: none
[4] = input ligand: microRNA oligo, concentration not stated

“GGAAAGGUAGGAUAUACGAAGAAAAAGGGUAGAAGAAAAACACAUGAGGAUCACCCAUGUAGAAGGACCAAAGG [Mat - Exclusion 2 - Mod of my Tesla design - D2] (puzzle: Exclusion 2)” was tested, and the “apparent KD of MS2 coat protein” value [1] was 51.4 nM, the “apparent KD of MS2 coat protein” value [2] was 22.1 nM and the “apparent KD of MS2 coat protein” value [3] was 23.4 nM.

With “CGUUAGUGAGGAUAUGGAAAUAGGUACAUGAGGAUCACCCAUGUUUGAAGGGAAAAGAGCCUAGAAGGCACUAACG [JR_Ex5_Sub055] (Eterna round: R97, puzzle: Exclusion 5)” the “apparent KD of MS2 coat protein” value (input ligand: FMN 200 uM) was 23.5 nM and the “apparent KD of MS2 coat protein” value (input ligand: none) was 35.2 nM.

In the case of “AUCUUUGCUCGUCAAAUUUACAUGAGGAUCACCCAUGUCUACCUGAGUGCGUCGGGACUGUACGUCAGCCGGUGGAA [Eternabot (L2) Solution 15] (Eterna round: R97, puzzle: Sensor, turn-off variant 1)”, the “apparent KD of MS2 coat protein” value (input ligand: FMN 200 uM) is reported as 23.3 nM and the “apparent KD of MS2 coat protein” value (input ligand: none) is reported as 25 nM.

For “CAUAUACAUGAGGAUCACCCAUGUGAGGAUAUGCUUUAUUAUUAUUAUUAUUAUUAUUGCAGAAGGUACAUUAC [LRO-Excl01-12] (Eterna round: R97, puzzle: Exclusion 1)”, the “apparent KD of MS2 coat protein” value (input ligand: FMN 200 uM) was 23.9 nM and the “apparent KD of MS2 coat protein” value (input ligand: none) was 24.6 nM.

In the case of “AUCUGCACGCUGCGGUCCUACAUGAGGAUCACCCAUGUGGUCUGGUGGCGUGGGUCGCCGGACUUGGCUCGUCUUGA [salish99_S_TOV1_R5_043] (Eterna round: R97, puzzle: Sensor, turn-off variant 1)”, the “apparent KD of MS2 coat protein” value (input ligand: FMN 200 uM) is reported as 18.1 nM and the “apparent KD of MS2 coat protein” value (input ligand: none) is reported as 18.1 nM.

“UUCCAUUCAGGAUAUCGAUGGAAUCACAUGAGGAUCACCCAUGUGAUACCUAGGUGACCGCGAGAAGGGAAAGGGU [EX5 B.7] (Eterna round: R97, puzzle: Exclusion 5)” was tested, and the “apparent KD of MS2 coat protein” value (input ligand: FMN 200 uM) was 13.8 nM and the “apparent KD of MS2 coat protein” value (input ligand: none) was 12.9 nM.

For “AUAGAGUCAGGAUAUACAGGUGGAGGAGAGCAGCGUAAGGAGUAGAAGGGACAUGAGGAUCACCCAUGUAAGUG [JR_Exclu4_Sub060] (puzzle: Exclusion 4)”, the “apparent KD of MS2 coat protein” value [1] was 52.5 nM, the “apparent KD of MS2 coat protein” value [2] was 55.1 nM and the “apparent KD of MS2 coat protein” value [3] was 81.2 nM.

“UACACCGCAUGAGGAUCAAACAUGAGGAUCACCCAUGUGUAGCAAGCUUUUUGCUCGUCUUAUAAAUAUGUGGUGUA [Electric Eye 9 - Jieux - Sensor, turn-off variant 1] (Eterna round: R97, puzzle: Sensor, turn-off variant 1)” was tested, and the “apparent KD of MS2 coat protein” value (input ligand: FMN 200 uM) was 12.6 nM and the “apparent KD of MS2 coat protein” value (input ligand: none) was 13 nM.

In the case of “UUUUGACAUGAGGAUCACCCAUGUGAGGAUAUGGCUUGUGGCGCGUCUGUGUGGCGGGUUAGAAGGCGCGUGCG [-24.6, -21.7 kcal, A 16%] (Eterna round: R97, puzzle: Exclusion 1)”, the “apparent KD of MS2 coat protein” value (input ligand: FMN 200 uM) is reported as 30.8 nM and the “apparent KD of MS2 coat protein” value (input ligand: none) is reported as 38.3 nM.

For “AGUGCGUAUGUGAGGAUAUGCUGGUCCUUGGAUCAGCAGAAGGCACAUGAGGAUCACCCAUGUGGUGUCGUACA [salish99_Bmod_Ex4_006] (puzzle: Brourd's mod of Exclusion 4)”, the “apparent KD of MS2 coat protein” value [2] was 320 nM.

With “CAUAGUUACUCAGGAUAUAGUACAUGAGGAUCACCCAUGUAAUAAAUGAGAAUUUCGAAUGUAUACUAGAAGGGAGAAAUCUAC [Ostracism 55 - Jieux - Exclusion NG 2] (Eterna round: R96, puzzle: Exclusion NG 2)” the “apparent KD of MS2 coat protein” value (input ligand: FMN 200 uM) was 44.5 nM, the “apparent KD of MS2 coat protein” value [4] was 35.8 nM and the “apparent KD of MS2 coat protein” value (input ligand: none) was 46.1 nM.

“GCAGCAACUCUAAUCAACCAAACAUGAGGAUCACCCAUGUCUCAGGAUAUGGUCUGGAUUACAGGCCAGAAGGGAGAAAGCUGC [Eli exng3 - 044] (Eterna round: R96, puzzle: Exclusion NG 3)” was tested, and the “apparent KD of MS2 coat protein” value (input ligand: FMN 200 uM) was 9 nM, the “apparent KD of MS2 coat protein” value [4] was 9.77 nM and the “apparent KD of MS2 coat protein” value (input ligand: none) was 13.4 nM.

“GGUGCCCGACAAGGAUAUAAGAUACAGAAAACCUUAGAAGGUGUCACAUGAGGAUCACCCAUGUGGUCCGGCACCAAUAACUCC [Inedraor] (Eterna round: R96, puzzle: Exclusion NG 1)” was tested, and the “apparent KD of MS2 coat protein” value (input ligand: FMN 200 uM) was 58.9 nM, the “apparent KD of MS2 coat protein” value [4] was 18.1 nM and the “apparent KD of MS2 coat protein” value (input ligand: none) was 41.9 nM.

“GUGUAGGGAGGAUAUACAUGAGGAUCACCCAUGUGAAUAAGAUAGAAUAAGAUAAAGUGUAGAAGGUCUAGUGU [Excluse me!!! 12 - Jieux - Exclusion 3] (puzzle: Exclusion 3)” was tested, and the “apparent KD of MS2 coat protein” value [2] was 52.7 nM.

“CAGUACUGAGGAUAUACAUGAGGAUCACCCAUGUGCUUCAGCUAGGAUACUAGCAUUAGUAGAAGGCAGUACUG [Fiskers Ex 3 828 mod 13] (Eterna round: R96, puzzle: Exclusion 3)” was tested, and the “apparent KD of MS2 coat protein” value (input ligand: FMN 200 uM) was 81 nM, the “apparent KD of MS2 coat protein” value [4] was 10.8 nM and the “apparent KD of MS2 coat protein” value (input ligand: none) was 13.9 nM.

“AUAAAUCAUGUAGGAUAUGCGUGGCGAAGCUAUGCAGAAGGACAUGAGGAUCACCCAUGUGCUUGCGUCCGCGUACGGAUGCAA [Mat - Exclusion NG 1 - Mod of JL - D69] (Eterna round: R96, puzzle: Exclusion NG 1)” was tested, and the “apparent KD of MS2 coat protein” value (input ligand: FMN 200 uM) was 65.2 nM, the “apparent KD of MS2 coat protein” value [4] was 155 nM and the “apparent KD of MS2 coat protein” value (input ligand: none) was 231 nM.

With “GAAUAGGCAGGAUAUACAUGAGGAUCACCCAUGUGCUUGCGAUAGGCACGUGAACAACGUAGAAGGGCCUUAAC [ChP 13.04.2015 #12] (Eterna round: R96, puzzle: Exclusion 3)” the “apparent KD of MS2 coat protein” value (input ligand: FMN 200 uM) was 184 nM, the “apparent KD of MS2 coat protein” value [4] was 30.8 nM and the “apparent KD of MS2 coat protein” value (input ligand: none) was 34.9 nM.

For “UUUAAUUUUUUUUUUUUACAAGCUUUUUGCUCGUCUUAUACAUGAGGAUCACCCAUGUAGAUGGGAGGUAAAUUAUC [JMF 75] (puzzle: Sensor v3, turn-off variant 2)”, the “apparent KD of MS2 coat protein” value [1] was 29.1 nM, the “apparent KD of MS2 coat protein” value [2] was 160 nM and the “apparent KD of MS2 coat protein” value [3] was 25.7 nM.

In the case of “CCUCGACAUGAGGAUCACCCAUGUCAGGAUAUUGUGUCUCGGGUUUUUUACCGUUAGGCAAGAAGGGAUGUGUG [LRO-Excl1-14] (puzzle: Exclusion 1)”, the “apparent KD of MS2 coat protein” value [2] is reported as 19.7 nM.

In the case of “CUCGUGCAGCUUUGCUGUACGAGUACAUGAGGAUCACCCAUGUAGGAUAUGGUACGCAAAGCGUGCCAGAAGGACGUGCGUUAG [Mat - Exclusion NG 3 - Mod of JL - D93] (Eterna round: R96, puzzle: Exclusion NG 3)”, the “apparent KD of MS2 coat protein” value (input ligand: FMN 200 uM) is reported as 78.7 nM, the “apparent KD of MS2 coat protein” value [4] is reported as 29.9 nM and the “apparent KD of MS2 coat protein” value (input ligand: none) is reported as 33.1 nM.

In the case of “UAUAUAUAGUAAGGAUAUGUAUAAAUUUUAUAAACAGAAGGUACUGACAUGAGGAUCACCCAUGUUUUAGUGUGGGCAUGUAGA [JMF's solution 52] (Eterna round: R96, puzzle: Exclusion NG 1)”, the “apparent KD of MS2 coat protein” value [4] is reported as 74.6 nM.

With “UAGUUCUGAGGAUAUUCUCCAAAGCACAUGAGGAUCACCCAUGUCCAGUUAUGGCUUUCUGAAGAAGGCAGUCUUA [Eternabot (L2) Solution 49] (Eterna round: R97, puzzle: Exclusion 5)” the “apparent KD of MS2 coat protein” value (input ligand: FMN 200 uM) was 87.9 nM and the “apparent KD of MS2 coat protein” value (input ligand: none) was 36.7 nM.

With “CUUAGACAUGAGGAUCACCCAUGUGAGGAUAUGAUGCGAAUGAAGAAAGAAGGAAGCAUCAGAAGGCACAUAUG [Mat - Mod of Hyphema D26] (puzzle: Exclusion 1)” the “apparent KD of MS2 coat protein” value [1] was 323 nM, the “apparent KD of MS2 coat protein” value [2] was 163 nM and the “apparent KD of MS2 coat protein” value [3] was 143 nM.

“UUUUAACAUGAGGAUCACCCAUGUGAGGAUAUCGAAAUUUAUAUUUAUAUUAAUAUAACGAGAAGGCACAUUUU [JMF 79] (puzzle: Exclusion 1)” was tested, and the “apparent KD of MS2 coat protein” value [2] was 58.2 nM.

In the case of “AAUUAUUGAUGAGGAUAUUGUGGUGAAACACCACAAGAAGGCAUUAUACACAUGAGGAUCACCCAUGUGAGCCUGAUGCAUAUA [Ex NG1 #56] (Eterna round: R96, puzzle: Exclusion NG 1)”, the “apparent KD of MS2 coat protein” value [4] is reported as 13.2 nM.

For “AUUGUAUGGAAAGGAUAUAGAAUAUUAUUUUAACAUGAGGAUCACCCAUGUAACCUUAUGUGUAGCUAGAAGGUUCGUUUGUUA [Title] (Eterna round: R96, puzzle: Exclusion NG 2)”, the “apparent KD of MS2 coat protein” value [4] was 69.2 nM.

With “GUAAACGCAGAGGAUAUAUCAGAUCAAAGCUGCAUAGAAGGCUGCACAUGAGGAUCACCCAUGUGGUCUUCAAG [Mat - Exclusion 6 - JL Mod - D7] (Eterna round: R97, puzzle: Exclusion 6)” the “apparent KD of MS2 coat protein” value (input ligand: FMN 200 uM) was 230 nM and the “apparent KD of MS2 coat protein” value (input ligand: none) was 31.2 nM.

In the case of “GCACGGGUGGUAGGAUAUCCUUGCGAUUAGCAAGGAGAAGGACCACAUGAGGAUCACCCAUGUACCUCAAUUAUCCUUCCGUGC [Eli exng1 - 024] (Eterna round: R96, puzzle: Exclusion NG 1)”, the “apparent KD of MS2 coat protein” value (input ligand: FMN 200 uM) is reported as 16.8 nM, the “apparent KD of MS2 coat protein” value [4] is reported as 10.4 nM and the “apparent KD of MS2 coat protein” value (input ligand: none) is reported as 14.5 nM.

With “GCGCCAUCGUGAGAUGGCGUAAUUACAUGAGGAUCACCCAUGUAGGAUAUCGAUUGCUUUGCAGUCGAGAAGGGCAAGGUUUGU [JL ENG3 3.84] (Eterna round: R96, puzzle: Exclusion NG 3)” the “apparent KD of MS2 coat protein” value (input ligand: FMN 200 uM) was 25.7 nM, the “apparent KD of MS2 coat protein” value [4] was 19.9 nM and the “apparent KD of MS2 coat protein” value (input ligand: none) was 30.9 nM.

“UGAAUGUGAGGAUAUGGUGAGUAGUGCCUAAGCGCUGCUCACCAGAAGGCACAUGAGGAUCACCCAUGUACUUG [Mat - Exclusion 4 - Mod of JL - D19] (puzzle: Exclusion 4)” was tested, and the “apparent KD of MS2 coat protein” value [2] was 47.9 nM.

In the case of “AGUGGUAGUAUCCGAUCCUACAUGAGGAUCACCCAUGUAGCUAGACGUGCACGCGAUGCUCGUCAGACUACCAGAUG [salish99_TOv1_r3_040] (puzzle: Sensor v3, turn-off variant 1)”, the “apparent KD of MS2 coat protein” value [1] is reported as 16.5 nM, the “apparent KD of MS2 coat protein” value [2] is reported as 14.1 nM and the “apparent KD of MS2 coat protein” value [3] is reported as 18.1 nM.

With “UUAUUAUAUGUAGGAUAUGCAUAUUGUUGUUAUGCAGAAGGACAUGAGGAUCACCCAUGUGUAUUAUUGUUAUAUAUUAUAUAU [Title] (Eterna round: R96, puzzle: Exclusion NG 1)” the “apparent KD of MS2 coat protein” value [4] was 16.5 nM.

In the case of “UAUUACAAGCGAAGAUCCCACAUGAGGAUCACCCAUGUGCUCGUCUUAUAAGGUACUGUGACGAAAGUCACGGUACC [Sensor 3, v1 - 91 v16] (Eterna round: R97, puzzle: Sensor, turn-off variant 1)”, the “apparent KD of MS2 coat protein” value (input ligand: FMN 200 uM) is reported as 32.7 nM and the “apparent KD of MS2 coat protein” value (input ligand: none) is reported as 31.1 nM.
